Results: US4585754A, “Stabilization of proteins and peptides by chemical binding with chondroitin” (Valcor Scientific, Ltd., priority 1984, dated 1986)

Key:
[1] = native, unmodified protein; cited from earlier work
blood glucose levels = test: lowering blood glucose levels in mice, bound versus free insulin; type: in vivo, Female CD-1 Swiss white mice; settings: subcutaneous, fasted mice
Procedure: Female CD-1 Swiss white mice averaging 20 g in weight were fasted overnight and used in groups of four. The insulins were injected subcutaneously, and blood specimens (50 microliters, by retro-orbital bleeding) were taken at intervals of 0.5, 3, 6, and 24 hours.

pepsin = test: stability against proteolytic digestion by pepsin; type: in vitro ADME; settings: pepsin 500 ng./ml., pH 3.5, at two minutes
Procedure: (§1) The SOD-chondroitin sulfate A product was tested for stability against proteolytic digestion. An aqueous solution containing 10 mg./ml. of the product was incubated with 50 mcg./ml. of trypsin at pH 7.8 and 23 C, and aliquots were withdrawn from time to time and the SOD activity determined. For comparison, SOD alone with incubated with trypsin under the same conditions. After just over forty minutes, approximately 88 percent of the SOD-chondroitin product remained in the solution, compared with only about 8 percent of the unprotected SOD. This is a difference in stability of over eight-fold.
Inasmuch as trypsin is known to be a very specific protease, cleaving only at the arginine and lysine residues, a further test was carried out according to substantially the same procedure using pepsin, a much more vigorous protease. The pH was kept low (3.5), since the optimum pH for pepsin is known to about 1.0-1.5. Even at the lowest concentration of pepsin tested (500 ng./ml.), digestion was very fast, but there was some degree of protection by the chondroitin compared with unprotected SOD.

trypsin = test: stability against proteolytic digestion by trypsin; type: in vitro ADME; settings: 50 mcg./ml. trypsin, pH 7.8, 23 C, 10 mg./ml., after just over forty minutes
Procedure: as §1

Row | Substance | half-life in the body [1] | blood glucose level at 24 hours (blood glucose levels; all dose levels, 24 hours) | comatose state (blood glucose levels; doses of 5.7 micrograms and above) | SOD remaining after pepsin digestion (pepsin) | percent remaining in the solution (SOD activity) (trypsin)
1 | insulin [free insulin] | about 15 minutes | significant rebound glucose level by 24 hours | comatose in one-half hour |  | 
2 | superoxide dismutase [unprotected SOD] | about five |  |  | essentially all destroyed | about 8%
